B1: Cell cycle protein kinase spo4 (Schizosaccharomyces pombe (strain ATCC 38366 / 972)), Q9UQY9 (parent)
chain: MLSMLLPFGNSGVYASDVDREDRPEIAKLVQAFPTIEEDYHVVKLVGAGSFSSVFKAVDRHFDSYDNSYWISSQIEDQMPHDKTKRPKNHFVALKRIYATVLPSRIQTELEMLHELRGSDCVLNMITAVRHQDQVLIVLPFIQHAEFRDFYMKYSLPEIGAYLRDLLKGLAHIDAKGIIHRDIKPGNFAWNPYTQRGVILDFGLAQWQEADAPTENCCVDKLRKLKQEGKYYDYFPFEKTIADPPEGYLLHDPRPTKRADRAGTRGFRAPEVLFRCQNQTSSIDVWSVGVILLCFLTHRYPFFRCEDDIDAIVELAHIFGRNGMSNCALLHGQIWSDNIPTLLDQKHNWLDLIASITKNDENLILETSSDYQVALAIDLLDKLLELHPSKRVKAKTALQHEFFNACGVTRSGFEAENPFRSDFPSTVEQ
partner: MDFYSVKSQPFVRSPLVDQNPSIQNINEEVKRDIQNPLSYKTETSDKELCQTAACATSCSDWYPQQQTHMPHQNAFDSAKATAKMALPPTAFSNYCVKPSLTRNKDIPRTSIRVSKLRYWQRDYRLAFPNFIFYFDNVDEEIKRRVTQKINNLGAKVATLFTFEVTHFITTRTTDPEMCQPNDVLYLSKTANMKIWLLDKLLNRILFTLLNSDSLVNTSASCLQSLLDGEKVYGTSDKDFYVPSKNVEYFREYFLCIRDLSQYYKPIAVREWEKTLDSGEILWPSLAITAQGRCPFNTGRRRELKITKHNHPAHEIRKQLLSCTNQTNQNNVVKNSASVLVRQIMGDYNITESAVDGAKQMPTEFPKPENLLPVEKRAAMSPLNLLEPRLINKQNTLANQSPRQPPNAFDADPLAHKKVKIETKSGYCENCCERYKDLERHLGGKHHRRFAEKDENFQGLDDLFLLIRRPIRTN

The variants in the test derive from B1. Conditions: with spo6_schpo spo6, Q9Y7J1.
For K95A, the “effect of a mutation on the interaction” value was “with no effect”.
